Measurements from patent publication US20070243194A1.

Experiments:
[1] = molecular target: hIGF-1R-Fc mutant SD008 (S258F) (human) (UniProt P08069); assay: SPR, Fab on receptor-Fc held on M13-C06 chip
[2] = molecular target: hIGF-1R-Fc mutant SD019 (A739W_I741F) (human) (UniProt P08069); assay: SPR, Fab on receptor-Fc held on M13-C06 chip
hIGF-1R-Fc mutant SD019 (A739W_I741F) (human), sequence (P08069 31-933, stated change not applied): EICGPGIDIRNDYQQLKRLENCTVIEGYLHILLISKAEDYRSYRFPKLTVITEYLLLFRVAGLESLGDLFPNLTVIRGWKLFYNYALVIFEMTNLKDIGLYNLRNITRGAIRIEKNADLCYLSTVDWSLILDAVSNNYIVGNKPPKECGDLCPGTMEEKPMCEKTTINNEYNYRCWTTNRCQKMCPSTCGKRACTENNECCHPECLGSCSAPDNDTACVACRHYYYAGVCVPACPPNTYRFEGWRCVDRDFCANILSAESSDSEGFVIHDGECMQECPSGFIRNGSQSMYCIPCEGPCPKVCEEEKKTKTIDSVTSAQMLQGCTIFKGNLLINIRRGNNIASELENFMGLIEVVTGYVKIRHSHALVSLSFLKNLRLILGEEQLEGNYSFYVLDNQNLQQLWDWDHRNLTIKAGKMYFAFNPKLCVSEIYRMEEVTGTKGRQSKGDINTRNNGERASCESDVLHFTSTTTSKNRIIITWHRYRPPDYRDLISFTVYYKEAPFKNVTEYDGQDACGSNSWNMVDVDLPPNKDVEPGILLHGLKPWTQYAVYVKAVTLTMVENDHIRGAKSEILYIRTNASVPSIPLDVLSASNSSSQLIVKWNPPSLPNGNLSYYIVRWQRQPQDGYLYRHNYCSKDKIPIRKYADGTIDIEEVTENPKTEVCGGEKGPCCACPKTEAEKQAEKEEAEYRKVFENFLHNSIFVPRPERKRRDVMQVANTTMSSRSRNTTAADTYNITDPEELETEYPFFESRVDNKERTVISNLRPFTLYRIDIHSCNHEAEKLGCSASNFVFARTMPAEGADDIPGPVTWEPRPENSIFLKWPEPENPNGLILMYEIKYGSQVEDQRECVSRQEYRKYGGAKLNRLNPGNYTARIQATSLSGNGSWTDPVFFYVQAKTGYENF

hIGF-1R-Fc mutant SD008 (S258F) (human), sequence (P08069 31-933, stated change not applied): as above

Biacore Relative RUmax [1]: 1.5
Biacore Relative RUmax [2]: 1.9
B1: M13-C06 Fab (Fab, V domains shown)
VH: EVQLLESGGGLVQPGGSLRLSCAASGFTFSIYRMQWVRQAPGKGLEWVSGISPSGGTTWYADSVKGRFTISRDNSKNTLYLQMNSLRAEDTAVYYCARWSGGSGYAFDIWGQGTMVTVSS
VL: DIQMTQSPLSLSASVGDRVTITCQASRDIRNYLNWYQQKPGKAPKLLIYDASSLQTGVPSRFGGSGSGTDFSFTIGSLQPEDIATYYCQQFDSLPHTFGQGTKLEIK
